From patent publication US20260258137A1

Experiments:
[1] = target: human PD-L1 on CHO-K1 cells (CHO-K1/hPD-L1, Nanjing Genscript, M00543) (human) (UniProt Q9NZQ7); assay: flow cytometry competition: biotin-hPD-1 binding to CHO-K1/hPD-L1 cells
[2] = target: cynomolgus PD-L1 on CHO-K1 cells (CHO-K1/cynoPD-L1, Nanjing Genscript, M00573) (cynomolgus) (UniProt G7PSE7); assay: flow cytometry on CHO-K1/cynoPD-L1 cells
[3] = target: human PD-L1 on CHO-K1 cells (CHO-K1/hPD-L1, Nanjing Genscript, M00543) (human) (UniProt Q9NZQ7); assay: flow cytometry on CHO-K1/hPD-L1 cells

human PD-L1 on CHO-K1 cells (CHO-K1/hPD-L1, Nanjing Genscript, M00543) (human), sequence (Q9NZQ7 19-290, one chain of several): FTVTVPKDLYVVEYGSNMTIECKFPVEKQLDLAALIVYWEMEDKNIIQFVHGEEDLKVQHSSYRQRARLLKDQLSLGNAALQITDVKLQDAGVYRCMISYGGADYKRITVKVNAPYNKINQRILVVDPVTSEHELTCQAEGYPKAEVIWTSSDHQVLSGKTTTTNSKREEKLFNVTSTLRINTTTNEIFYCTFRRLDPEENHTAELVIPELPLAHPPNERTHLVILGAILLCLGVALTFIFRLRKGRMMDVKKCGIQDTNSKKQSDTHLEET
cynomolgus PD-L1 on CHO-K1 cells (CHO-K1/cynoPD-L1, Nanjing Genscript, M00573) (cynomolgus), sequence (G7PSE7 entry or part of it limits assumed, one chain of several): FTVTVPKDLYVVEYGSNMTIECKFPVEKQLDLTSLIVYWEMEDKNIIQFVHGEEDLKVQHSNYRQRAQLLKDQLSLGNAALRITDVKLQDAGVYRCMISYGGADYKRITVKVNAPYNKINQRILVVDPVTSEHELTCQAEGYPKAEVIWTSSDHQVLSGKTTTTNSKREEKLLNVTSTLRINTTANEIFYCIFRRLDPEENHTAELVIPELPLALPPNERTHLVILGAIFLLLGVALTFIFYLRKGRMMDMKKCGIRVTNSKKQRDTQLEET

Maximum inhibition rate (%) [1]: 0.68% | MFI maximum value [2]: 935 MFI | MFI maximum value [3]: 305 MFI
Substance: isotype antibody hIgG1 iso
